# Measured values taken from the DeepSol protein solubility set.
# Assay: soluble on expression in E. coli; label from the status in PepcDB or PDB records
row,Sequence,soluble on expression in E. coli
1,SGFEFHGYARSGVIMNDSGASTKSGAYITPAGETGGAIGRLGNQADTYVEMNLEHKQTLDNGATTRFKVMVADGQTSYNDWTASTSDLNVRQAFVELGNLPTFAGPFKGSTLWAGKRFDRDNFDIHWIDSDVVFLAGTGGGIYDVKWNDGLRSNFSLYGRNFGDIDDSSNSVQNYILTMNHFAGPLQMMVSGLRAKDNDERKDSNGNLAKGDAANTGVHALLGLHNDSFYGLRDGSSKTALLYGHGLGAEVKGIGSDGALRPGADTWRIASYGTTPLSENWSVAPAMLAQRSKDRYADGDSYQWATFNLRLIQAINQNFALAYEGSYQYMDLKPEGYNDRQAVNGSFYKLTFAPTFKVGSIGDFFSRPEIRFYTSWMDWSKKLNNYASDDALGSDGFNSGGEWSFGVQMETWF,soluble
2,MSLFINKEAELQWVREYARRSHATPFVIYGPEGCGKTALALEAVRRFSSWYAGGIALYIDGKARRAAEAVKSNVNIGDVLAEVGGLAGSVGRSAARLAVWLLGKIVEKIAERFAPMNILVVDELFSAVGVSEGALAVKYAKELGDRVLRSKKAELGEIPKPLAEASVSYLIFSSEGSSRRELSRHNWAHIALMWNMGERGFQQLGEILGAPDFSAAWRLCGGQPPLPFPISRAGLGRGKIPNSNREGHHHHHH,soluble
3,GLECDGKVNICCKKQFFVSFKDIGWNDWIIAPSGYHANYCEGECPSHIAGTSGSSLSFHSTVINHYRMRGHSPFANLKSCCVPTKLRPMSMLYYDDGQNIIKKDIQNMIVEECGCS,soluble
4,QQEYMKVGKFSPESNRSRWLVTRGATMTTKDTTRNMTMNTNLGGYQVLEIFRKLETPEAVTAFEGLSIPEPGLEPRFCVREGEQEVPVTTRYTDEAFWQVFDFSFVAGKHYTEADARSNIAVAVITDRLARRFFGSSSEAVGRQALINGRKYTVCGVVRHVTPFCDFAYGDVWMPVFRLYEERVKNNLFSRFNVICLAKSPKDFDAIKEEVGALTAKCNSVQEKFNISFPGQPADQFTTMHRKFHRDDTEPLEYRRR,not soluble
5,MSLIAIYVRVSTEEQAIKGSSIDSQIEACIKKAGTKDVLKYADEGFSGELLERPALNRLREDASKGLISQVICYDPDRLSRKLMNQLIIDDELRKRNIPLIFVNGEYANSPEGQLFFAMRGAISEFEKAKIKERTSSGRLQKMKKGMIIKDSKLYGYKFVKEKRTLEILEEEAKIIRMIFNYFTDHKSPFFGRVNGIALHLTQMGVKTKKGAKVWHRQVVRQILMNSSYKGEHRQYKYDTEGSYVSKQAGNKSIIKIRPEEEQITVTIPAIVPAEQWDYAQELLGQSKREGHHHHHH,soluble
6,MLIVGINGSPKKEGNTKYLINTVLEEAKSQGVETMVLEVGELLNSVKNPFCVVCSNPCSSICYKGTKLEEAYEILKKADAIVMGSPVYFGSVSAQLKAFFDKTRKLRSEKALYNKFACGVTVGGARFGGQETTMKALHDIMLVHGMTIVGDGYVGDDCGHHGVCAQQPADKDEFAIKRAKILGRRLVDVCKKAGA,not soluble
7,MAHHHHHHMLQEYTGERCVSYRVNPQRGGCVETVAEVDAQDFFTEPGGLVTSPTTPSTPAGSTSARQARRRVVTTLERILLPDGYPSSVTEDLLPFALWDLAQVLAKNVTATLSTRAVLLGVGVGESKADLTSATLSWMMQDGTRMIGSVVFAPLIPQGLECRAKTWQLVADFTTDIANLLELCAPWLPGGQTTFRVVLVAASVVKALGSVCRNCTRASFTRHFALRNNAADIAAKASTRSSVGSFIGLVLGVAVAYIVPATSRSLNLVVFALGSVLHIFASYRSVRGVQLKHLNAPRLEWCLVQYSLFEAKVLIASKKDSGPLSVMPILDVSPRSANAAERLLILPSLRAVPPPSDSFYDSVRGFLCRYCFPPTLTLRIHCGASLFRLLQHQRGLTTRCKHELVQQVESALASRGIALLVDDVDMTYYVILPEYFTVEGVPAMWVRYKRQYGDDLTCMEAKQRQSAAARAAQRRQDGAASLSPSGAAVAAPDAGHGLDEAGRRAAQAEAELERLQKERVVVPPHILPLAYRQLWAYFYAFMHYRAVRLRREGPLTHAKDVLEGLHKNRSLECQRLHIITALRADGTLEAGHSDASDVPHSPAQFEEITSPASTTSDVPLERRVVPALATRAGGDDGDDGDNTAAPSYDGLHPQFIEFVRALRMTGWELDELLVGNEGYTTVVHYL,not soluble
8,MGSDKIHHHHHHMLDQQHIQYFKNLVGGEDFFTDLAHLNAYCYDATKERHLPSGVIFPKNEQEISQILKYCNEHRIIVVPRGAGSGFTGGALSVSGGLVLSVEKHLDKILEIDTKNLIARVEPGVINKHFQNEVEKLNLFYPPDPASENQSTLGGNVAENAGGMRAAKYGITKDYVMALRVVLANGEIIRAGKKTIKDVAGFNVAGLMIASEGCLGVISEITLKLLAKPPLKQSAMGVFNHIEDAMNAVYKTMSSGVTPVAMEFLDNLSIKAVEERFSKGLPKDAGAILITQVDGVVKEQIAWQLNEIEKHFKANCCVDFKIAQNEQEEQDLWFSRRNASQSISVYGKKKLNEDVTVPRASLPSLLQEVAKISQKYGFKIPCFGHTGDGNVHVNIMLEDPKRDLEKGHEAMEEIFQAAISLEGTLSGEHGIGLSKAKFMPLAFNHSEMELFRNIKKALDPNNILNPFKMGL,not soluble
9,PPKIRVVVRKRPISKKERERGDDDVVDVLAKNNTVVVNEEKVKVDLTKYLEKHAFKFDESLDENVSNEAVYQLTVGPLVRTLFRNGRASCFAYGQTGSGKTYTMSPLPIRASADIFTFMAQQQYRDISLCVSCFEIYGNKVFDLLNARKKLNILEDGKKKVVVVGLKEFGVDDVDGVKALIEESAKNRSTGSTAANADSSRSHSIMQFALKRAAPAPAGGFRRGEDAPEPRVVGKISFIDLAGSERGADTFDNNRQTRLEGAEINKSLLALKECIRALDSDARHVPFRGSKLTAVLRDSFVGDQARTVMIANISPCSSSVEHTLNTLRYADRVKELRKDKADRT,soluble
10,MGSDKIHHHHHHMQTDKIFYSLFQAFTSIFFAIIGEADINPSTYEFVSVELKETAFRIDGVFKPVNETTEEPLYFVEVQFQLDPKFYRRFFAEIFLYLRQNPSVNFWRAVVIYPQRIIEPDDQQPYRSILDSSQIQRIYLDELGTANENSLQLAIMQLIIASEAIAIDQGRQLIIQARQELTDEANKKQIVELIETILLYKFTNLSREEVAAMLGIDDEFKKTRMYQSIKEDGLEEGRQEGRQQGIQEGRQEGRLQAKLEAIPRLLALGLSVEQIASALDLSIEQVQQVTGN,not soluble
11,SNAMNLNQLDIIVSNVPQVCADLEHILDKKADYANDGFAQFTIGSHCLMLSQNHLVPLENFQSGIIIHIEVEDVDQNYKRLNELGIKVLHGPTVTDWGTESLLVQGPAGLVLDFYRMK,soluble
12,IHTSPYSKDAPLVASLSVNQKITGRNSEKDVRHIEIDLGDSGLRYQPGDALGVWYQNDPALVKELVELLWLKGDEPVTVEGKTLPLNEALQWHFELTVNTANIVENYATLTRSETLLPLVGDKAKLQHYAATTPIVDMVRFSPAQLDAEALINLLRPLTPRLYSIASSQAEVENEVHVTVGVVRYDVEGRARAGGASSFLADRVEEEGEVRVFIEHNDNFRLPANPETPVIMIGPGTGIAPFRAFMQQRAADEAPGKNWLFFGNPHFTEDFLYQVEWQRYVKEGVLTRIDLAWSRDQKEKVYVQDKLREQGAELWRWINDGAHIYVCGDANRMAKDVEQALLEVIAEFGGMDTEAADEFLSELRVERRYQRDVY,soluble
13,MGSDKIHHHHHHMNAALWISKTGLDAQTKDIAVISNNLANASTIGFKKSRAVFEDLLYQNINQPGGRTAQDTEAPSGLMLGAGTKVVATQKIHTQGDMITSDNALDLMIQGEGFFEIQMPDGSSAYSRNGQFTMDDEGNMVTPGAGYMIQPQVTIPEDALSIIVSQDGEVSVTLQGQPDPAVVGQINLINFVNPTGLQPIGQNLYTETAVSGAPQEGVPGLEGYGMLVQGALETSNVNTTEELVNLIESQRVYEMNSKVISAVDEMLSYINQQM,not soluble
14,AAGKDFVVKGKDGWAIIAGYHWFDEWGRDTFISLEGLLLVDKQYDIAKEIILKYLNLEKRGMLPNNFISYNGEPVYRGVDISLWAINAIYKTYIYSRDKNFIRKVVDKVLDIIDWYSKGNGVIYNVDNLIFHKGAPRTWMDASYDSRIVTPREGAAVEINALWYNALRVTEFLLNELGEKAEYLSEKAESVKKSFAEKFISQDGLYDYINWDNIPDKSIRPNQIFSISLPFPIIDDKSIASKILTLIESKLLRQYGLSSLSREDPNYKPVYKGDRRSRESLPQWTHMALVTRRLC,not soluble
15,MSLKITRITVYQIALPLEHPYWLSGGRLKFEVLDATLVKIETGTGLTGWGEGTPWGHTYVPAHGPGIRAGIETMAPFIIGLDPRRGLEIERAMDLALPGHLYAKSPIDMACWDIAGQAAGLSIADLMGGGSRTPRPIASSVGAKTVEETRAVIERYRQRGYVAHSVKIGGDIERDIARVRDVESLRRDGEIVLYDVNRGWTRQQALRVMSATEDLNVMFEQPCESLDDIAAIAGKYAAPVSVDESLVTLQDAARIARDGLAEVFGIKLNRVGGLTKAARMRDIALAHGIDMFVMATGGSVLADAEALHLAATIPDANCHAVWACQDMITLDIAGGRGPRNIDGHLHLTEAPGLGVHPDEDVLGDPVGVYGEGHHHHHH,not soluble
16,MASDVTVNVSAEKQVIRGFGGMNHPAWAGDLTAAQRETAFGNGQNQLGFSILRIHVDENRNNWYKEVETAKSAVKHGAIVFASPWNPPSDMVETFNRNGDTSAKRLKYNKYAAYAQHLNDFVTFMKNNGVNLYAISVQNEPDYAHEWTWWTPQEILRFMRENAGSINARVIAPESFQYLKNLSDPILNDPQALANMDILGTHLYGTQVSQFPYPLFKQKGAGKDLWMTEVYYPNSDTNSADRWPEALDVSQHIHNAMVEGDFQAYVWWYIRRSYGPMKEDGTISKRGYNMAHFSKFVRPGYVRIDATKNPNANVYVSAYKGDNKVVIVAINKSNTGVNQNFVLQNGSASNVSRWITSSSSNLQPGTNLTVSGNHFWAHLPAQSVTTFVVNRLEHHHHHHHH,soluble
17,MKANRWFGMAQPKSGKMNMNILHQEELIAQKKREIEARMEQKARQSHVPSPQPPHPGEIADAHNSCISNKFANDGSFLQQFLKLQKAQTSTDSAPRAPPSMPTPSSLKKPLVLSKRTGLGLSSPTGPVKNYSHAKQLPVAHRPSVFQSPDDDEEEDYEQWLEIKVSPPEGAETRRVIEKLARFVAEGGPELEKVAMEDYKDNPAFTFLHDKNSREFLYYRRKVAEIRKEAQKPQAATQKVSPPEDEEAKNLAEKLARFIADGGPEVETIALQNNRENQAFSFLYDPNSQGYRYYRQKLDEFRKAKAGSTGSFPAPAPNPSLRRKSAPEALSGAVPPITACPTPVAPAPAVNPTPSIPGKPTATAAVKRKRKSRWGPEEDKVEFHLLNWHRGT,soluble
18,AIAKLTDSVLRSFRVAKVFRENSDKINCFDFSSNGETVISSSDDDSIVLYDCQEGKPKRTLYSKKYGVDLIRYTHAANTVVYSSNKIDDTIRYLSLHDNKYIRYFPGHNKRVVALSMSPVDDTFISGSLDKTIRLWDLRSPNCQGLMHLQGKPVCSFDPEGLIFAAGVNSEMVKLYDLRSFDKGPFATFKLQYERTCEWTGLKFSNDGKLILVSTNGGTLRVLDAFKGAVLHSFGGYNNSKGVILEAPFTPDSQFIMIGSEDGKIHVWNAESGMKVALLDGKHTGPVTCLQFNPKFMTFASACSNMAFWLPTIDD,soluble
